Experiment [1] concerns the target Cμ2 (μ2 residues 160 to 435) (UniProt P84092). Kind of experiment: ITC; Cμ2 with FCHO2 constructs or peptides; 100 mM tris pH 7.4, 150 mM NaCl, 0.25 mM TCEP; 12°C; Nano ITC.
Experiment [2] concerns the target AP2 α-appendage (residues 695 to 938) (UniProt P17427). Kind of experiment: ITC; α-appendage or β2-appendage with C block peptides; 100 mM tris pH 7.4, 150 mM NaCl, 0.25 mM TCEP; 12°C; peptides 1 to 5 mM titrated.
Experiment [3] deals with GST-TGN38 (pGEX4T2 linker TGN38). Briefly: BLI; GST-TGN38 loaded on anti-GST biosensors; AP2 core (3.3 to 0.1 μM) or AP2 FCHO2 chimera (2.6 to 0.9 μM) in solution; physiological buffer; association 20 min, dissociation 25 min.
Sequence of GST-TGN38 (pGEX4T2 linker TGN38) (Q9UJY5 other isoform, or with tags, fused parts or gaps): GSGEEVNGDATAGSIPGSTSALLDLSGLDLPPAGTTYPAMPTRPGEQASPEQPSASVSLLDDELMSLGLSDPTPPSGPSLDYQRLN
The target in experiment [4] is GST-FCHO1 linker wt (N123C) (residues 316 to 444) (human) (UniProt O14526). Briefly: BLI; GST-FCHO1 or GST-FCHO2 linker loaded on anti-GST biosensors, blocked with GST-ARRS control; AP2 core in solution (twofold dilutions, 13.5 to 0.8 and 10.0 to 0.2 μM); 25°C; 0.1% NP-40, BSA 1 mg/ml; equilibrium analysis; near-physiological conditions.
Sequence of GST-FCHO1 linker wt (N123C) (residues 316 to 444) (human) (O14526 316-444, stated change not applied): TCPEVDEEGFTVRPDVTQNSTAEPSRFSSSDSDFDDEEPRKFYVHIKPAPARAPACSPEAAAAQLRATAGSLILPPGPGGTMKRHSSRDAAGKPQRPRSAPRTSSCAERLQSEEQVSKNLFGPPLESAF
The target in experiment [5] is GST-FCHO2 linker wt (residues 314 to 444) (human) (UniProt Q0JRZ9). Described as above.
Sequence of GST-FCHO2 linker wt (residues 314 to 444) (human) (Q0JRZ9 314-444): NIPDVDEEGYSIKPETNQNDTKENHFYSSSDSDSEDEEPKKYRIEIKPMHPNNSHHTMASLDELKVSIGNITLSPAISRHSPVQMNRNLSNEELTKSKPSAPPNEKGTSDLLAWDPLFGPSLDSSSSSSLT

Sequence of Cμ2 (μ2 residues 160 to 435) (P84092 160-435): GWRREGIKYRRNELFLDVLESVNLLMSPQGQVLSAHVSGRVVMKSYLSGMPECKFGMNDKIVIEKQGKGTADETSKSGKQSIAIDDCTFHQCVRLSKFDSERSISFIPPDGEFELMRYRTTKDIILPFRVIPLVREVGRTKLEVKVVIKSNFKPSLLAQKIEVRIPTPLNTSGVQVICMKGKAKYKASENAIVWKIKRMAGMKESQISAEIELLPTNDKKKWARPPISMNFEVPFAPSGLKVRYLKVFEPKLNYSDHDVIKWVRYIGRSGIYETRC
Sequence of AP2 α-appendage (residues 695 to 938) (P17427 695-938): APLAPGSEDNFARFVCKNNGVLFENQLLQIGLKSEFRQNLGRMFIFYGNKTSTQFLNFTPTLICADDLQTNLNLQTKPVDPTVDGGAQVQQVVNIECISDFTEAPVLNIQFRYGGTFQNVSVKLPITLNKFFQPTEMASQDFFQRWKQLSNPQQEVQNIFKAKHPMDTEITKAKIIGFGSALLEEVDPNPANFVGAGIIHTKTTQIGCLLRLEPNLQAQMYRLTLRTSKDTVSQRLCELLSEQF

In turn, “FCHO2 N1 alone (ITC) (from UniProt Q0JRZ9-1 314-340) (domain or fragment)” had a fold reduction of binding against N1+N2 in experiment [1] of 5 fold.
In the case of FCHO1 C peptide (residues 426 to 448), the Kd in experiment [2] was 50 µM.
The substance “AP2:μ2FCHO2-N1+N2+N3 chimeric AP2 core (from UniProt P62743 1-142; P63010 1-591; Q0JRZ9-1 314-444) (complex)” returned a fold tighter binding than AP2 core in experiment [3] of 3 fold.
On to “FCHO2-N1+N2 (ITC) (from UniProt Q0JRZ9-1 314-356) (domain or fragment)”, for which the dissociation constant Kd in experiment [1] turned out to be 25 µM.
For “AP2 core (recombinant) (from UniProt P63010 1-591; P84092 1-435; P62743 1-142) (complex)”, the Kd in experiment [4] stood at 8.5 µM; in experiment [5] it was 9.8 µM.

The values are drawn from paper PMC9054013, “FCHO controls AP2’s initiating role in endocytosis through a PtdIns(4,5)P2-dependent switch” (Science Advances, 2022).
